Values joined by “and” are separate entries in the source; they are usually repeats but may differ in a detail not shown here. Identical values can stand only once.
Legend:
[1] = molecular target: Human Met-Fc chimera (human) (UniProt P08581); test: ELISA
[2] = molecular target: Rat tail collagen type I, neutralized fibrillar (rat) (UniProt P02454); test: ELISA
[3] = molecular target: Met receptor (human (endogenous in HeLa)) (UniProt P08581); test: cross-linking + co-IP
Human Met-Fc chimera [4] = molecular target: T1, Human Met-Fc chimera (human, UniProt P08581 25-932, fully glycosylated); test: ELISA
T1 sequence (P08581 25-932, change not shown): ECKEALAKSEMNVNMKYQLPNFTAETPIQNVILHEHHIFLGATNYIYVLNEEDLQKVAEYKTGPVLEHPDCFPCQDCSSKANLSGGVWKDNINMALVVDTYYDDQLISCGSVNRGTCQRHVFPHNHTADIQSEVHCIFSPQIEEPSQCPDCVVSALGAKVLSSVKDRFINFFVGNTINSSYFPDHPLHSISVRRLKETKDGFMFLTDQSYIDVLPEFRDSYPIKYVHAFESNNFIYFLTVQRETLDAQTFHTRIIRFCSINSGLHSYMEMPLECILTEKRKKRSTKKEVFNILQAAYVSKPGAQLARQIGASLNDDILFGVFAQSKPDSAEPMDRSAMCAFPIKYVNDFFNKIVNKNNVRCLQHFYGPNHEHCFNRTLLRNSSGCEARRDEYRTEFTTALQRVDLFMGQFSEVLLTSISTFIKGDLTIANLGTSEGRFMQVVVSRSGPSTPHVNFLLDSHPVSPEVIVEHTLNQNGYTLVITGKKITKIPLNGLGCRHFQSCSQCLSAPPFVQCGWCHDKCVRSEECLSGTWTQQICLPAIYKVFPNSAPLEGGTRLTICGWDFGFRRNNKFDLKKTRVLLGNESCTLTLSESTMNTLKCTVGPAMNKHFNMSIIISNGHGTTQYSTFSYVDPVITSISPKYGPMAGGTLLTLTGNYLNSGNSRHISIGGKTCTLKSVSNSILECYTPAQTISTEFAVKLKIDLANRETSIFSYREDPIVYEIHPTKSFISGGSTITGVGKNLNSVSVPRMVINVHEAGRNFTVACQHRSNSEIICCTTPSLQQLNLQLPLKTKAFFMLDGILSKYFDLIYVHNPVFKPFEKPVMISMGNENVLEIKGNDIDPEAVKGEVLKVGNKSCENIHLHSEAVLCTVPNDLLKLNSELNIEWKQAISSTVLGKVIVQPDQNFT

Human Met-Fc chimera [5] = molecular target: T1, Human Met-Fc chimera; test: ELISA; remark: listed apart in the source

Chain of Met receptor (human (endogenous in HeLa)) (P08581 25-1390): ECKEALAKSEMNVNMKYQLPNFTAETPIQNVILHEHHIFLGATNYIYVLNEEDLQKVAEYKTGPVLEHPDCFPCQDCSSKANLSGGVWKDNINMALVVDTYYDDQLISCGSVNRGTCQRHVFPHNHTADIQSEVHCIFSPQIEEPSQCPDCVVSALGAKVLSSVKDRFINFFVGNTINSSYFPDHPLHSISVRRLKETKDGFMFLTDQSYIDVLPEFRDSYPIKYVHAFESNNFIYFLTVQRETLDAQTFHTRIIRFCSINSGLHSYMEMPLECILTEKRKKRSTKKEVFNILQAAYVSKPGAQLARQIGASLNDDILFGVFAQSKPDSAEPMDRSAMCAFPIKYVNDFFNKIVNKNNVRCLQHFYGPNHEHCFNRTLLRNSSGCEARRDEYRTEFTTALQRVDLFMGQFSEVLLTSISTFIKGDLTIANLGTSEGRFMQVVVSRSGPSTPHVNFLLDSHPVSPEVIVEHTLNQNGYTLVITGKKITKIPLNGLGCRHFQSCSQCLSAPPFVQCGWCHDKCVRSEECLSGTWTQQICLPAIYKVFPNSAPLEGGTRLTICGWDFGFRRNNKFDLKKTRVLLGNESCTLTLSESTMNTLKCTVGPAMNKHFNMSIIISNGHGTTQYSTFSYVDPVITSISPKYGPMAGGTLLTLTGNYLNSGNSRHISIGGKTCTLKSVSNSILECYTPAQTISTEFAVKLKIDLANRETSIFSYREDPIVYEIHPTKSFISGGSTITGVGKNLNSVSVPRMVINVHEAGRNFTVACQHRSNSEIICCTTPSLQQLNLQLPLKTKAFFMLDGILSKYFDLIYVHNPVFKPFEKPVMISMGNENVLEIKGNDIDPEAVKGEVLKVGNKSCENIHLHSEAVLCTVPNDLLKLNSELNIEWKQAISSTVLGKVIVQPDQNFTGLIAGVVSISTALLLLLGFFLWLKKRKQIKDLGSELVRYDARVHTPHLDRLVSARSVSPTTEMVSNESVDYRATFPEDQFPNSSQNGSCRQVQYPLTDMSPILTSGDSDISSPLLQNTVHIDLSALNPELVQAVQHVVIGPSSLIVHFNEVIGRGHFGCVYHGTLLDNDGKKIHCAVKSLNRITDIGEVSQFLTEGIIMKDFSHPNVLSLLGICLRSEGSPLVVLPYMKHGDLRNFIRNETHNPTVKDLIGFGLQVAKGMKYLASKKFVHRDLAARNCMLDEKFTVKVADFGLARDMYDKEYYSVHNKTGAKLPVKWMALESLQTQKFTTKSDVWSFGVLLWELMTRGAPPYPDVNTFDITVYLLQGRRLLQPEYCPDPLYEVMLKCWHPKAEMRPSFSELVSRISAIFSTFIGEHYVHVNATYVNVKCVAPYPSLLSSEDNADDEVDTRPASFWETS
Chain of Human Met-Fc chimera (human) (P08581 25-932, change not shown): as the sequence (P08581 25-932, change not shown) above
Chain of Rat tail collagen type I, neutralized fibrillar (rat) (P02454 152-1207, chain 1 of 2): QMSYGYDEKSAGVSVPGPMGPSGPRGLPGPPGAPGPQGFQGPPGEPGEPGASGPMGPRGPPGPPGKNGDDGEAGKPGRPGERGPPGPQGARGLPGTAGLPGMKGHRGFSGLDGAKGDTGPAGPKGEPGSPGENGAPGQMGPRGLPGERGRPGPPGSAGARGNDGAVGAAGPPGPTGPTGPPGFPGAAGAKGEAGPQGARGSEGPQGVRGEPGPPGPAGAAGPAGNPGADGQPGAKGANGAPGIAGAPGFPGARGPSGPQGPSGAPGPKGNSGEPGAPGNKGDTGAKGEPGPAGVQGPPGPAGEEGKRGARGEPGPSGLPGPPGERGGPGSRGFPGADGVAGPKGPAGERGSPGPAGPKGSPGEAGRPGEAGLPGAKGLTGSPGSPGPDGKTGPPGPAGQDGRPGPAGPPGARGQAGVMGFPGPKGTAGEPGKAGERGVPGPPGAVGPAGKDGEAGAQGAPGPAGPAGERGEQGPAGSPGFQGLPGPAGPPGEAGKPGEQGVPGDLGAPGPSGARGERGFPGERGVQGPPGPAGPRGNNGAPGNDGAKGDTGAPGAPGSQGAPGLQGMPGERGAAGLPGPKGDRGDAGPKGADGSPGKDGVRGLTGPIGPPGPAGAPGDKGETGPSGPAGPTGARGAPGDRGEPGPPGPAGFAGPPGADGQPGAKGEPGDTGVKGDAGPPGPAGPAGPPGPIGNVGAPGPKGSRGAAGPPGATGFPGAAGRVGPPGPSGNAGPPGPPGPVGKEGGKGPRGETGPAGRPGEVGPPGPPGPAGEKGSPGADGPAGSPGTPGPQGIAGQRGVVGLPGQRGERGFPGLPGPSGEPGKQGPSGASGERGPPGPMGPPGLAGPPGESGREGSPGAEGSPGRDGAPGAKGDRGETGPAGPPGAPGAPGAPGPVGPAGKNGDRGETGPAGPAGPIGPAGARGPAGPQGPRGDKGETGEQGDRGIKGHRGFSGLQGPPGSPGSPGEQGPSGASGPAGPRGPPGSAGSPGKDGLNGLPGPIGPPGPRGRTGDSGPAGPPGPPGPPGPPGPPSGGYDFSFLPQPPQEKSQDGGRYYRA
Chain of Rat tail collagen type I, neutralized fibrillar (rat) (P02466 86-1125, chain 2 of 2, further chain): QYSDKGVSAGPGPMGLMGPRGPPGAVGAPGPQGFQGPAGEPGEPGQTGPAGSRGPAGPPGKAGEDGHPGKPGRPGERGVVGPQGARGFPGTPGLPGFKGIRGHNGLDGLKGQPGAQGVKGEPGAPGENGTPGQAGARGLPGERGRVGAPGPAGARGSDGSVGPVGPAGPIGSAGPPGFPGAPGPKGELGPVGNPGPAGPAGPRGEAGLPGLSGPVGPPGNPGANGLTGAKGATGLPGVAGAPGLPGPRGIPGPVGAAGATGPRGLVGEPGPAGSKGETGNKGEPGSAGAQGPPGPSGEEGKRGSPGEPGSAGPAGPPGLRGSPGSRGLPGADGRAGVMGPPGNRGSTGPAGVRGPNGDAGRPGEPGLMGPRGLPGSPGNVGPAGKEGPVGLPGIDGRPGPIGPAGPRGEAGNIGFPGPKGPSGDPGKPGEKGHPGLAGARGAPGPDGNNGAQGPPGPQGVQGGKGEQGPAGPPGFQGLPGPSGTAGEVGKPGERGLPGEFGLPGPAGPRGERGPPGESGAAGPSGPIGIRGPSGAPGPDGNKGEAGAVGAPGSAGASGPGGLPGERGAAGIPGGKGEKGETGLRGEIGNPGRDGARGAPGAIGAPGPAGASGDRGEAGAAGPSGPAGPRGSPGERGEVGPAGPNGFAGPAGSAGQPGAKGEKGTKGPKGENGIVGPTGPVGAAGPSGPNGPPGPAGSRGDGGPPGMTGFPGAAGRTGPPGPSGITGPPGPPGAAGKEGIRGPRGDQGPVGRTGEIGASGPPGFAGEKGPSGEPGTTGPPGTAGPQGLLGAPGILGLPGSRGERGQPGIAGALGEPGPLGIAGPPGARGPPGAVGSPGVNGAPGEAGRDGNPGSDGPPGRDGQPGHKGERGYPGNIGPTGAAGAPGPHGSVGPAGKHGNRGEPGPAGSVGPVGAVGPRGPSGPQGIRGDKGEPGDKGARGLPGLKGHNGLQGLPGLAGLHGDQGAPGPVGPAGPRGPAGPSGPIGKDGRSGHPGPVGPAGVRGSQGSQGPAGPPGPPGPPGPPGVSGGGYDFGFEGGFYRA

Molecule: Decorin protein core (from UniProt P07585 31-359) (ligand)
- Kd [1]: 1.5 nM
- Kd [2]: 0.28 nM
- stoichiometry N [3]: 1

B1: Internalin B (ligand)
chain: AKVQAETITVPTPIKQIFSDDAFAETIKDNLKKKSVTDAVTQNELNSIDQIIANNSDIKSVQGIQYLPNVTKLFLNGNKLTDIKPLANLKNLGWLFLDENKVKDLSSLKDLKKLKSLSLEHNGISDINGLVHLPQLESLYLGNNKITDITVLSRLTKLDTLSLEDNQISDIVPLAGLTKLQNLYLSKNHISDLRALAGLKNLDVLELFSQECLNKPINHQSNLVVPNTVKNTDGSLVTPEIISDDGDYEKPNVKWHLPEFTNEVSFIFYQPVTIGKAKARFHGRVTQPLKEVYTVSYDVDGTVIKTKVEAGTRITAPKPPTKQGYVFKGWYTEKNGGHEWNFNTDYMSGNDFTLYAVFKAETTEKAVNLTRYVKYIRGNAGIYKLPREDNSLKQGTLASHRCKALTVDREARNGGKLWYRLKNIGWTKAENLSLDRYDKMEYDKGVTAYARVRNASGNSVWTKPYNTAGAKHVNKLSVYQGKNMRILREAKTPITTWYQFSIGGKVIGWVDTRALNTFYKQSMEKPTRLTRYVSANKAGESYYKVPVADNPVKRGTLAKYKNQKLIVDCQATIEGQLWYRIRTSSTFIGWTKAANLRAQK
- IC50 (Human Met-Fc chimera [4]): ~120 nM and ~180 nM
- Kd (Human Met-Fc chimera [5]): 2.16 nM

— PMC2711571 (The Journal of Cell Biology, 2009)
